Reference: the supplement of paper PMC10567573

B1: KRT13 (parent)
chain: TPGIDLTRVLAEMREQYEAMAERN

Variants of: B1
Assay: protein stability index of a GFP-peptide fusion (GPS, HEK-293T) (PSI 1-6); higher = more stable
Settings: c terminus: a fixed tail appended
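Note: lentivirally expressed fusions sorted by FACS into six bins by GFP to DsRed ratio, PSI derived from sequencing read proportions per bin multiplied by bin number.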

Compared with TPGIDLTRVLAEMREQYEACAERN [M20C], TSGIDLTRVLAEMREQYEAMAERN [P2S] is lower in protein stability index: 4.1 for the first, 3.9 for the second.

Going from TPGIVLTRVLAEMREQYEAMAERN [D5V] to TPGIDLTRELAEMREQYEAMAERN [V9E], the protein stability index rises from 2.63 to 4.71.

First: TPGIDLTRVGAEMREQYEAMAERN [L10G]
Second: TPGIDLTRVFAEMREQYEAMAERN [L10F]
The protein stability index of the first is higher: 5.23 for the first, 4.55 for the second.

Compared with TPGIDLTRVLAEMREQYEAMAERW [N24W], TPGICLTRVLAEMREQYEAMAERN [D5C] is lower in protein stability index: 4.55 for the first, 2.73 for the second.

Compared with TPGIDLTYVLAEMREQYEAMAERN [R8Y], TPGIALTRVLAEMREQYEAMAERN [D5A] is higher in protein stability index: 3.39 for the first, 5.15 for the second.

Compared with TPGIDDTRVLAEMREQYEAMAERN [L6D], TPGIFLTRVLAEMREQYEAMAERN [D5F] is lower in protein stability index: 3.84 for the first, 2.19 for the second.

Compared with TPGIDLTRVLAEMRESYEAMAERN [Q16S], TPGIDLTRVLAEMRIQYEAMAERN [E15I] is lower in protein stability index: 3.17 for the first, 2.85 for the second.

Compared with YPGIDLTRVLAEMREQYEAMAERN [T1Y], TPGIDLTRVLAEMREQYEWMAERN [A19W] is lower in protein stability index: 4.34 for the first, 3.4 for the second.

First: TPGIDLTRVLAEMREQYEAPAERN [M20P]
Second: TPGIDLPRVLAEMREQYEAMAERN [T7P]
The protein stability index of the first is higher: 4.81 for the first, 4.16 for the second.

Compared with TPGIDLTRVLAEMREQYEKMAERN [A19K], TPGIDLTRVLAEMRENYEAMAERN [Q16N] is higher in protein stability index: 3.53 for the first, 3.8 for the second.

Compared with TPHIDLTRVLAEMREQYEAMAERN [G3H], TPGIDLTRVLAEMREQYEAMDERN [A21D] is higher in protein stability index: 3.35 for the first, 4.91 for the second.

Going from TPGYDLTRVLAEMREQYEAMAERN [I4Y] to TPGCDLTRVLAEMREQYEAMAERN [I4C], the protein stability index rises from 3.75 to 4.87.

First: TPGIDETRVLAEMREQYEAMAERN [L6E]
Second: TPGIDLTRVLAEMREQYEAMCERN [A21C]
The protein stability index of the first is higher: 4.69 for the first, 4.29 for the second.

First: TPGVDLTRVLAEMREQYEAMAERN [I4V]
Second: TPGIDLWRVLAEMREQYEAMAERN [T7W]
The protein stability index of the first is higher: 3.8 for the first, 3.28 for the second.

First: TVGIDLTRVLAEMREQYEAMAERN [P2V]
Second: TPGIILTRVLAEMREQYEAMAERN [D5I]
The protein stability index of the first is lower: 2.6 for the first, 2.66 for the second.

Going from TPGIDLTRVLAEMREQYESMAERN [A19S] to TPGIDLTRVLAEMREQYQAMAERN [E18Q], the protein stability index falls from 4.53 to 3.13.

Going from TPGIDLTRVLAEMREQYGAMAERN [E18G] to TPGIDLTRVLAEMREQYEAMAEWN [R23W], the protein stability index falls from 3.88 to 2.83.

Going from TPGIDLTRVLAEMKEQYEAMAERN [R14K] to TPGIDLTLVLAEMREQYEAMAERN [R8L], the protein stability index falls from 3.69 to 2.64.

First: TPGIDLTRVLSEMREQYEAMAERN [A11S]
Second: TPGIDLTRVLAEMNEQYEAMAERN [R14N]
The protein stability index of the first is higher: 4.61 for the first, 4.55 for the second.

Compared with TPGIDLTRVLAEMTEQYEAMAERN [R14T], TPGIDLTRVLAEMREQEEAMAERN [Y17E] is higher in protein stability index: 4.44 for the first, 4.6 for the second.

Compared with TPGIDLTRVLAEMREQYEAMAERS [N24S], TPGNDLTRVLAEMREQYEAMAERN [I4N] is lower in protein stability index: 4.51 for the first, 2.62 for the second.

Going from TPQIDLTRVLAEMREQYEAMAERN [G3Q] to TPGIDLTRVLAKMREQYEAMAERN [E12K], the protein stability index falls from 3.23 to 2.23.

First: HPGIDLTRVLAEMREQYEAMAERN [T1H]
Second: TPGIDLTRVLAEMREQYEAMADRN [E22D]
The protein stability index of the first is lower: 4.28 for the first, 4.66 for the second.

Going from TPGKDLTRVLAEMREQYEAMAERN [I4K] to TPGIDLTRVLAEMREQYEHMAERN [A19H], the protein stability index rises from 3.45 to 3.71.

Going from TPGIDLHRVLAEMREQYEAMAERN [T7H] to TPGIDLTRVLAEMREQYEAMALRN [E22L], the protein stability index rises from 3.81 to 4.4.

Going from TPKIDLTRVLAEMREQYEAMAERN [G3K] to TPGIDLTRVLAEGREQYEAMAERN [M13G], the protein stability index rises from 1.99 to 4.72.

Going from TPGIKLTRVLAEMREQYEAMAERN [D5K] to TPGIELTRVLAEMREQYEAMAERN [D5E], the protein stability index rises from 2.21 to 4.54.

Compared with TPGIDLTRVLAEMREQTEAMAERN [Y17T], TPGIDLTRVLAFMREQYEAMAERN [E12F] is lower in protein stability index: 5.8 for the first, 3.42 for the second.

Compared with TPGIDLTRVLAEAREQYEAMAERN [M13A], TPGIDLTRVLAEMREQYEAMHERN [A21H] is lower in protein stability index: 4.67 for the first, 4.07 for the second.

First: TPGIDHTRVLAEMREQYEAMAERN [L6H]
Second: TPGIDLTRVLAEMREQYEAKAERN [M20K]
The protein stability index of the first is lower: 3.99 for the first, 4.81 for the second.

Going from TPGIDLTRVLAEMREQYENMAERN [A19N] to TPGIDLTRVLAEMREQYEAYAERN [M20Y], the protein stability index rises from 4.28 to 4.62.

First: TPGIDLTRVLAEEREQYEAMAERN [M13E]
Second: TPGIDLTRVLAEMREQYEAMAENN [R23N]
The protein stability index of the first is higher: 5.33 for the first, 4.59 for the second.

First: NPGIDLTRVLAEMREQYEAMAERN [T1N]
Second: TPGIDLTRVLAEMRLQYEAMAERN [E15L]
The protein stability index of the first is higher: 4.26 for the first, 3.04 for the second.

Going from TPGIDLTRVLAEQREQYEAMAERN [M13Q] to TPGIDLTRVLAEMREQYEAMAEKN [R23K], the protein stability index falls from 4.1 to 4.03.

First: TAGIDLTRVLAEMREQYEAMAERN [P2A]
Second: TEGIDLTRVLAEMREQYEAMAERN [P2E]
The protein stability index of the first is higher: 4.17 for the first, 3.16 for the second.

First: TPGIDLTRVDAEMREQYEAMAERN [L10D]
Second: GPGIDLTRVLAEMREQYEAMAERN [T1G]
The protein stability index of the first is higher: 5.17 for the first, 4.59 for the second.

First: TPGIDLTRVLVEMREQYEAMAERN [A11V]
Second: TPGIDLTRVLAEMREQYFAMAERN [E18F]
The protein stability index of the first is higher: 3.79 for the first, 2.84 for the second.

Compared with TPGIDLTRVLAEMREQYEAMAERH [N24H], TPGIDLTRVLAEMREQYEYMAERN [A19Y] is lower in protein stability index: 4.79 for the first, 3.76 for the second.

Compared with TPGIDLTRVLAEMREQYEPMAERN [A19P], TPGIDLSRVLAEMREQYEAMAERN [T7S] is lower in protein stability index: 4.08 for the first, 3.07 for the second.

Going from TPGIDLTRVLQEMREQYEAMAERN [A11Q] to TPGIDLTRVLAEMREQYEAMQERN [A21Q], the protein stability index rises from 2.85 to 4.54.

First: TPGIDLTRVLAEMREQYEAMAERY [N24Y]
Second: TPGIDLTRVLAEMREQYETMAERN [A19T]
The protein stability index of the first is lower: 3.8 for the first, 4.16 for the second.

Going from TPGIDLTRVLACMREQYEAMAERN [E12C] to TPGIDLTRVLAEMREQYEAMAWRN [E22W], the protein stability index rises from 2.66 to 2.86.

First: TPGIDLTRVLNEMREQYEAMAERN [A11N]
Second: TPGIDLTRVLAEMREQDEAMAERN [Y17D]
The protein stability index of the first is lower: 3.77 for the first, 5.4 for the second.

Compared with DPGIDLTRVLAEMREQYEAMAERN [T1D], TPGIDLTRVLAEMHEQYEAMAERN [R14H] is higher in protein stability index: 3.47 for the first, 3.61 for the second.

Going from TPGIDLTRVLTEMREQYEAMAERN [A11T] to TPGIDLTRVLAEMREQYEIMAERN [A19I], the protein stability index falls from 3.88 to 3.73.

First: TPGIDLTRVLAEMREHYEAMAERN [Q16H]
Second: TPGINLTRVLAEMREQYEAMAERN [D5N]
The protein stability index of the first is lower: 3.31 for the first, 3.88 for the second.

Compared with TPGIDLTRVLAEMREQYHAMAERN [E18H], TPGIDLTRVLAEMQEQYEAMAERN [R14Q] is higher in protein stability index: 3.44 for the first, 4.46 for the second.
